T1: TaBZR2 (Triticum aestivum (ZM1860), UniProt A0A3B6FJ07 1-354)
T1 sequence: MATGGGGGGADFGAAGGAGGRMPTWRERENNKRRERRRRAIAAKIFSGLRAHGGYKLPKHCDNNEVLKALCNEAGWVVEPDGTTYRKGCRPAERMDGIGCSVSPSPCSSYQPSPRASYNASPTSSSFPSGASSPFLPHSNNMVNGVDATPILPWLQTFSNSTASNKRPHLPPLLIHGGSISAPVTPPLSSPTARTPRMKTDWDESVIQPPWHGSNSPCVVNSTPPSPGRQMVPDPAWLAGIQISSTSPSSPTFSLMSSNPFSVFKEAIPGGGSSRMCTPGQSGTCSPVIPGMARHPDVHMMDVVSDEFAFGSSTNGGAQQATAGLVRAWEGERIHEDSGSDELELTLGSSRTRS

B1: TaHSFb2a promoter E-box probe (WT) (dsDNA)
DNA 1: CCGTTTCTAGAAACCTCGCCACGTGGCCGACTAGAAAGGATCG
DNA 2: CGATCCTTTCTAGTCGGCCACGTGGCGAGGTTTCTAGAAACGG
B2: TaHSFb2a promoter mutated E-box probe (dsDNA)
DNA 1: CCGTTTCTAGAAACCTCGCTGTACAGCCGACTAGAAAGGATCG
DNA 2: CGATCCTTTCTAGTCGGCTGTACAGCGAGGTTTCTAGAAACGG
B3: TaHSP21 promoter mutated E-box probe (dsDNA)
DNA 1: AAGCATGCGCATGTTGAAATGGACACAAAATGATGGACAAGGGC
DNA 2: GCCCTTGTCCATCATTTTGTGTCCATTTCAACATGCGCATGCTT
B4: TaHSP21 promoter E-box probe (WT) (dsDNA)
DNA 1: AAGCACATATGTGTTGAAACAAGTGCAAAATGACAAGTGAGGGC
DNA 2: GCCCTCACTTGTCATTTTGCACTTGTTTCAACACATATGTGCTT

Assays:
TaBZR2 [1] = molecular target: T1, TaBZR2; test: EMSA
TaBZR2 [2] = molecular target: T1, TaBZR2; test: competition
TaBZR2 [3] = molecular target: T1, TaBZR2; test: competition; remark: listed apart in the source

| Binder | binding result (TaBZR2 [1]) | also measured |
| --- | --- | --- |
| B1 | binds |  |
| B2 |  | binding result (TaBZR2 [2]): no binding |
| B3 |  | binding result (TaBZR2 [3]): no binding |
| B4 | binds |  |
